Data set [1] deals with the molecule itself. In words: FTIR; 6 mM peptide in water, pH adjusted from 7.2 to 4.2; amide I band 1625–1630 cm^−1; bio-ATR cell.
Data set [2] concerns the molecule itself. As to the kind of experiment: crystal structure; amyloid-like single crystals grown from peptide solutions (water, water/ACN/TFA, water/EtOH or 0.1 M citrate pH 4.0; pH 2-7; 4-37 °C; conditions of each polymorph in Table 1); data at 100 K, Cu Kα.
Data set [3] deals with the molecule itself. In words: far-UV CD; 0.15–0.20 mM peptide in distilled water, physiological pH and above (above pH 5), stirred 500–600 rpm at 37 °C, measured at 25 °C for up to weeks.
Data set [4] deals with the molecule itself. In words: far-UV CD; 0.15–0.20 mM peptide in distilled water, acidic pH set with HCl/NaOH, stirred 500–600 rpm at 37 °C, measured at 0–168 h at 25 °C; U to β/β’-type spectral shift.

Non-standard residues stand in square brackets, D forms with d. No end group written: not given here. pGlu = O=C1CC[C@@H](C(=O)O)N1

B1: APR^GLP1 hexapeptide EFIAWL (aggregation-prone region of glucagon-like peptide 1) (peptide)
peptide: EFIAWL
notes: aggregation-prone hexapeptide segment of human glucagon-like peptide 1 (GLP-1); source: synthetic peptide (flow solid-phase synthesis, Fmoc/tBu; RP-HPLC purified)
In the case of B1, the binding result in data set [1] was “binds”.

B2: pEFIAWL (APR^GLP1 with N-terminal pyroglutamic acid) (peptide)
peptide: [pGlu]FIAWL
notes: aggregation-prone hexapeptide segment of human GLP-1; residue 1 is pyroglutamic acid; Both EFIAWL and pEFIAWL were present in the crystallization samples; the crystal holds pEFIAWL; also called pEFIAWL (GLP-1); APR^GLP1 (in the crystal); source: formed from synthetic EFIAWL by spontaneous ring closure in the crystallization sample (pH ≈ 2, 37 °C)
With B2, in data set [2], the binding result is “binds”.

B3: APR^Tc5b hexapeptide LYIQWL (synthetic exendin-like APR of the de novo designed Tc5b and E19) (peptide)
peptide: LYIQWL
notes: hexapeptide segment of the de novo designed Trp-cage exendin derivatives Tc5b and E19; non-natural, no acidic side chain; also called LYIQWL (Tc5b, E19); source: synthetic peptide (flow solid-phase synthesis, Fmoc/tBu; RP-HPLC purified)
In the case of B3, in data set [3], the binding result is listed as “binds”.

B4: Ac-EFIAWL (N-terminally acetylated APR^GLP1) (peptide)
peptide: Ac-EFIAWL
notes: aggregation-prone hexapeptide segment of human GLP-1, N-terminally acetylated; also called Ac-EFIAWL (GLP-1); source: synthetic peptide
For the protein B4, in data set [4], the binding result is “binds”.

B5: APR^GLP2 hexapeptide DFINWL (aggregation-prone region of glucagon-like peptide 2) (peptide)
peptide: DFINWL
notes: aggregation-prone hexapeptide segment of human glucagon-like peptide 2 (GLP-2); free termini (no terminal protection); also called DFINWL (GLP-2); source: synthetic peptide (flow solid-phase synthesis, Fmoc/tBu; RP-HPLC purified)
Consider B5, for which, in data set [2], the binding result is recorded as “binds”.
